From the RNAGym collection of RNA variant scans (doi:10.1093/molbev/msab373)

B1: Azoarcus group I ribozyme (parent)
chain: GUGCCUUGCGCCGGGAAACCACGCAAGGGAUGGUGUCAAAUUCGGCGAAACCUAAGCGCCCGCCCGGGCGUAUGGCAACGCCGAGCCAAGCUUCGGCGCCUGCGCCGAUGAAGGUGUAGAGACUAGACGGCACCCACCUAAGGCAAACGCUAUGGUGAAGGCAUAGUCCAGGGAGUGGCGAAAGUCACACAAACCGG

Variants of: B1
Assay: reverse-splicing fitness (ratio to wild type); higher = more active; in vitro selection; Mg2+ level not given
Outline: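 An in vitro group I ribozyme library with randomized positions was T7-transcribed and gel-purified. In triplicate, 10 pmol RNA in EPPS pH 7.5 was reacted with 50 pmoles of a 30-nt RNA substrate for 1 h at 37 °C across several added MgCl2 levels (1–48 mM), then stopped with EDTA. Products were reverse transcribed from a substrate-complementary primer, PCR-amplified and sequenced (HiSeq 4000). Fitness is a variant's read proportion after selection over that before, normalised to wild type.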
C82A A111U A120C A145U C150G U176C gave a reverse-splicing fitness of 0.00808.
In the case of C82A A111U A120C A145U C150G U176A, the reverse-splicing fitness is reported as 0.00752.
In the case of C82A A111U A120C A145U C150G U176G, the reverse-splicing fitness is reported as 0.00439.
C82A A111U A120C A145U C150U C169A U176G gave a reverse-splicing fitness of 0.00837.
Work on C82A A111U A120C A145U C150U C169A U176C yielded a reverse-splicing fitness of 0.0168.
C82A A111U A120C A145U C150U C169A U176A showed a reverse-splicing fitness of 0.0216.
Work on C82A A111U A120C A145G C150A C169G U176G yielded a reverse-splicing fitness of 0.00858.
Work on C82A A111U A120C A145G C150A C169G U176A yielded a reverse-splicing fitness of 0.0204.
In the case of C82A A111U A120C A145G C150A C169G U176C, the reverse-splicing fitness is reported as 0.0343.
For C82A A111U A120C A145U C150U C169G U176C, the reverse-splicing fitness was 0.0244.
For C82A A111U A120C A145U C150U C169G U176G, the reverse-splicing fitness was 0.00736.
For C82A A111U A120C A145U C150U C169G U176A, the reverse-splicing fitness was 0.016.
Work on C82A A111U A120C A145G C150G U176A yielded a reverse-splicing fitness of 0.00848.
C82A A111U A120C A145G C150G U176G gave a reverse-splicing fitness of 0.00733.
With C82A A111U A120C A145G C150G U176C the reverse-splicing fitness was 0.0126.
In the case of C82A A111U A120C A145U C169A U176A, the reverse-splicing fitness is reported as 0.0227.
For C82A A111U A120C A145U C169A U176C, the reverse-splicing fitness was 0.0235.
In the case of C82A A111U A120C A145G C150U C169A U176C, the reverse-splicing fitness is reported as 0.018.
Variant C82A A111U A120C A145G C150U C169A U176G has a reverse-splicing fitness of 0.00943.
With C82A A111U A120C A145G C150U C169A U176A the reverse-splicing fitness was 0.0182.
In the case of C82A A111U A120C A145G C150G C169U U176G, the reverse-splicing fitness is reported as 0.00787.
In the case of C82A A111U A120C A145G C150G C169U U176C, the reverse-splicing fitness is reported as 0.0129.
C82A A111U A120C A145G C150G C169U U176A gave a reverse-splicing fitness of 0.0146.
Variant C82A A111U A120C A145C C150G C169A U176G has a reverse-splicing fitness of 0.0073.
Work on C82A A111U A120C A145C C150G C169A U176C yielded a reverse-splicing fitness of 0.011.
In the case of C82A A111U A120C A145C C150G C169A U176A, the reverse-splicing fitness is reported as 0.00999.
C82A A111U A120C A145C U176G showed a reverse-splicing fitness of 0.00578.
Variant C82A A111U A120C A145C U176A has a reverse-splicing fitness of 0.0139.
In the case of C82A A111U A120C A145C U176C, the reverse-splicing fitness is reported as 0.0202.
C82A A111U A120C A145U C150U C169A gave a reverse-splicing fitness of 0.0111.
With C82A A111U A120C A145U C150U C169U the reverse-splicing fitness was 0.0116.
C82A A111U A120C A145U C150U C169G showed a reverse-splicing fitness of 0.00959.
With C82A A111U A120C A145C C169A U176G the reverse-splicing fitness was 0.00573.
In the case of C82A A111U A120C A145C C169A U176A, the reverse-splicing fitness is reported as 0.0167.
In the case of C82A A111U A120C A145C C169A U176C, the reverse-splicing fitness is reported as 0.0175.
C82A A111U A120C A145C C169U U176C showed a reverse-splicing fitness of 0.0149.
In the case of C82A A111U A120C A145C C169U U176G, the reverse-splicing fitness is reported as 0.00416.
C82A A111U A120C A145C C169U U176A showed a reverse-splicing fitness of 0.0168.
C82A A111U A120C A145U C150A U176C gave a reverse-splicing fitness of 0.0223.
Work on C82A A111U A120C A145U C150A U176G yielded a reverse-splicing fitness of 0.00762.
C82A A111U A120C A145U C150A U176A gave a reverse-splicing fitness of 0.0108.
With C82A A111U A120C A145U C150G C169G U176G the reverse-splicing fitness was 0.00698.
Variant C82A A111U A120C A145U C150G C169G U176A has a reverse-splicing fitness of 0.00986.
Variant C82A A111U A120C A145U C150G C169G U176C has a reverse-splicing fitness of 0.00626.
For C82A A111U A120C A145C C150G C169G U176A, the reverse-splicing fitness was 0.0109.
Work on C82A A111U A120C A145C C150G C169G U176G yielded a reverse-splicing fitness of 0.0065.
Work on C82A A111U A120C A145C C150G C169G U176C yielded a reverse-splicing fitness of 0.00882.
Variant C82A A111U A120C A145C C150G U176G has a reverse-splicing fitness of 0.0032.
For C82A A111U A120C A145C C150G U176C, the reverse-splicing fitness was 0.00974.
With C82A A111U A120C A145C C150G U176A the reverse-splicing fitness was 0.00531.
In the case of C82A A111U A120C A145U C150A C169A U176C, the reverse-splicing fitness is reported as 0.0189.
In the case of C82A A111U A120C A145U C150A C169A U176G, the reverse-splicing fitness is reported as 0.00919.
For C82A A111U A120C A145U C150A C169A U176A, the reverse-splicing fitness was 0.0231.
For C82A A111U A120C A145U C150U C169U U176A, the reverse-splicing fitness was 0.0157.
Work on C82A A111U A120C A145U C150U C169U U176C yielded a reverse-splicing fitness of 0.0137.
With C82A A111U A120C A145U C150U C169U U176G the reverse-splicing fitness was 0.00816.
With C82A A111U A120C A145U C150G C169U U176A the reverse-splicing fitness was 0.00711.
C82A A111U A120C A145U C150G C169U U176G showed a reverse-splicing fitness of 0.00741.
With C82A A111U A120C A145U C150G C169U U176C the reverse-splicing fitness was 0.0117.
For C82A A111U A120C A145U C150G C169A U176G, the reverse-splicing fitness was 0.00766.
With C82A A111U A120C A145U C150G C169A U176A the reverse-splicing fitness was 0.0117.
In the case of C82A A111U A120C A145U C150G C169A U176C, the reverse-splicing fitness is reported as 0.0116.
Variant C82A A111U A120C A145U C150A C169G U176G has a reverse-splicing fitness of 0.00723.
Work on C82A A111U A120C A145U C150A C169G U176C yielded a reverse-splicing fitness of 0.0263.
In the case of C82A A111U A120C A145U C150A C169G U176A, the reverse-splicing fitness is reported as 0.0219.
C82A A111U A120C A145G C150A C169A U176G showed a reverse-splicing fitness of 0.0115.
Work on C82A A111U A120C A145G C150A C169A U176C yielded a reverse-splicing fitness of 0.0279.
C82A A111U A120C A145G C150A C169A U176A showed a reverse-splicing fitness of 0.0221.
For C82A A111U A120C A145G C150G C169G, the reverse-splicing fitness was 0.00768.
C82A A111U A120C A145G C150G C169A showed a reverse-splicing fitness of 0.00936.
C82A A111U A120C A145G C150G C169U gave a reverse-splicing fitness of 0.0104.
With C82A A111U A120C A145U the reverse-splicing fitness was 0.0284.
Variant C82A A111U A120C A145G has a reverse-splicing fitness of 0.0269.
For C82A A111U A120C A145C C150G C169U U176A, the reverse-splicing fitness was 0.00683.
In the case of C82A A111U A120C A145C C150G C169U U176G, the reverse-splicing fitness is reported as 0.00543.
In the case of C82A A111U A120C A145C C150G C169U U176C, the reverse-splicing fitness is reported as 0.0102.
C82A A111U A120C A145U C169A gave a reverse-splicing fitness of 0.00981.
Work on C82A A111U A120C A145C C150U C169G U176C yielded a reverse-splicing fitness of 0.0353.
Variant C82A A111U A120C A145C C150U C169G U176A has a reverse-splicing fitness of 0.0356.
With C82A A111U A120C A145C C150U C169G U176G the reverse-splicing fitness was 0.00842.
Variant C82A A111U A120C A145G U176G has a reverse-splicing fitness of 0.00731.
C82A A111U A120C A145G U176C gave a reverse-splicing fitness of 0.0361.
For C82A A111U A120C A145G U176A, the reverse-splicing fitness was 0.0187.
